As usually defined, the EC50 (read off the curve) is the concentration giving half of the maximal effect. Broadly, the IC50 is the concentration that gives 50% inhibition. A higher IC50 goes with weaker potency in that assay. A word on the Kd: it is the concentration at which binding is half-saturated. As usually defined, the koff is a measure of how fast the partners let go of each other. What is called kon is the second-order rate constant of association. The low end stands for slow association, the high end for fast association.

We go through five molecules from US20150165065A1 (AVIDBIOTICS, published 2015).

Assay [1] concerns the target FGFR3 (coated on wells) (UniProt P22607). As to the kind of experiment: ELISA on FGFR3-coated wells after 1 hour at 60 C and 1 hour back at room temperature [panel A]. For orientation: ELISA stands for enzyme-linked immunosorbent assay.
Another assay deals with T1, mouse NKG2D-Fc (mouse, UniProt O54709 94-232, limits assumed).
T1 construct: Construct not described; also called murine NKG2D-Fc; murine NKG2D; not shown: Fc part
T1 sequence (looked up): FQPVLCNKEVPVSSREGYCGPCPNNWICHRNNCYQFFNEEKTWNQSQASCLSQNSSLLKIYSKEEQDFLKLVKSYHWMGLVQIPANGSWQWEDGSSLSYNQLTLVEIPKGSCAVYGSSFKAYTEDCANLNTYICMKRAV
As to the kind of experiment: competition ELISA: titrated soluble protein inhibits binding of mouse NKG2D-Fc to plate-coated MICA [panel B]. An excerpt: (§1) As for the NKG2D ligands (NKG2DLs) in the above example, we attached polypeptides directly to each of these 4 modified α1-α2 NKG2DLs using a linker peptide. The 4 His-tagged proteins (SEQ ID NOs.: 131-134) were expressed in insect cells and purified to characterize their NKG2D binding affinities and kinetic binding parameters. Using a competitive binding ELISA, we determined the relative NKG2D binding affinities of the 4 modified α1-α2 variants.

In assay [2] the target is T2, human NKG2D-Fc (human, UniProt P26718 78-216, limits assumed).
T2 construct: construct not described; also called human NKG2D-Fc reagent; not shown: Fc part
T2 sequence (looked up): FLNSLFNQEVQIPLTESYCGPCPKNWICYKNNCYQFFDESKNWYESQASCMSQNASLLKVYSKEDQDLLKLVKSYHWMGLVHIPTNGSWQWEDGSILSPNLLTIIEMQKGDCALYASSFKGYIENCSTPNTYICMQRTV
Kind of assay: competition ELISA, 2 nM human NKG2D-Fc on coated WT sMICA.
Text: as §1

The target in assay [3] is T2, human NKG2D-Fc. Kind of assay: competition ELISA, human NKG2D-Fc on coated WT sMICA.
Text: as §1

The target in assay [4] is T3, biotinylated human NKG2D (human, UniProt P26718 78-216, limits assumed, biotinylated (site not stated)).
T3 construct: Surface-coated in biolayer interferometry (Octet); also called recombinant biotinylated NKG2D
T3 sequence (looked up): T2 sequence (looked up)
As to the kind of experiment: BLI (Octet).

The target in assay [5] is NKG2D receptor on NKL effector cells (human) (UniProt P26718). Kind of assay: cell-based or functional assay.
Assay [6] addresses T3, biotinylated human NKG2D. Kind of assay: BLI (Octet), Kd = kOFF/kON. Background: In BLI a coated tip is dipped into the sample, and binding shifts an interference pattern.
The target of assay [7] is T3, biotinylated human NKG2D. Kind of assay: BLI (Octet), coated biotinylated human NKG2D, 100 nM analyte.
The target in assay [8] is T4, FGFR3 (coated on wells) (UniProt P22607 23-375, limits assumed).
T4 construct: Coated at 2 ug/ml on Maxisorp plates; also called Fibroblast Growth Factor Receptor 3
T4 sequence (looked up): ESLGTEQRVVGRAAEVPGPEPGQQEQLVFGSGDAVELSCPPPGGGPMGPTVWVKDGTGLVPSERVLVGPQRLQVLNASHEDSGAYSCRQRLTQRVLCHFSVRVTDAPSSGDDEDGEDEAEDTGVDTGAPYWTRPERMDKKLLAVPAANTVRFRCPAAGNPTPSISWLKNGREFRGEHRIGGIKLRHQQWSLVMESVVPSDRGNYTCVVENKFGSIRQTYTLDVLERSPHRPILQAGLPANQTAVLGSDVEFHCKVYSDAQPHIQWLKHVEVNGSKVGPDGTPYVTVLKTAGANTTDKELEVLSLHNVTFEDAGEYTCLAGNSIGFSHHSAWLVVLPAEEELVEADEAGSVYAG
As to the kind of experiment: ELISA on FGFR3-coated wells (2 ug/ml), bound sMICA detected with NKG2D-Fc and anti-Fc-HRP. Here is the method: The purified MICA-α3-iFv proteins were tested in a FGFR3-binding ELISA to confirm simultaneous binding to the FGFR3 target and the NKG2D receptor. FGFR3 in phosphate buffered saline (PBS) was coated onto Maxisorp plates at 2 ug/ml concentration. Each MICA protein was titrated, allowed to bind FGFR3 for 1 hour, and washed to remove unbound sMICA protein. The bound MICA-α3-iFv protein was detected using NKG2D-Fc and anti-Fc-HRP conjugate.

For assay [9], the target named is T4, FGFR3 (coated on wells). As to the kind of experiment: ELISA on FGFR3-coated wells after 1 hour at 80 C and 1 hour back at room temperature [panel B].

Substitutions are numbered along the chain they refer to.

“MICA-scFv (traditional scFv constructed from MAbR3 fused to the C-terminus of soluble MICA) (from UniProt Q29983 24-307) (designed binder)” had an EC50 (read off the curve) with FGFR3 (coated on wells) [1] of 5 nM.

B1: α1-α2 variant 17 (designed binder)
chain: EPHSLRYNLTVLSWDGSVQSGFLTEVHLDGQPFLRCDRQKCRAKPQGQWAEDVLGNKTWDRETRDLTLWGKDLRMTLAHIKDQKEGLHSLQEIRVCEIHEDNSTRSSQHFYYDGELFLSQNLETLEWTMPQSSRAQTLAMNVRNFLKEDAMETDTHYHAMRADCLQELRRYLKSGVVLRRTVPPMVQVTRSEASGGSGDRVTITCRASQDVSTAVAWYQQKPGKAPKLLIYSASFLYSGVPSRFSGSGSGTDFTLTISSLQPEDFATYYCQQSYTTPPTFGQGTKVEIKGGSSRSSSSGGGGSGGGGEVQLVESGGGLVQPGGSLRLSCAASGFTFTSTGISWVRQAPGKGLEWVGRIYPTNGSTNYADSVKGRFTISADTSKNTAYLQMNSLRAEDTAVYYCARTYGIYDLYVDYTEYVMDYWGQGTLVTVSSGGSSRSSSSGGGGSGGGGDIQMTQSPSSLSASGGSGQITVTCRASGFYPWNITLSWRQDGVSLSHDTQQWGDVLPDGQGTYQTWVATRISQGEEQRFTCYMEHSGQHSTHPVPSGKGSHHHHHH
notes: His-tagged protein from insect cells, modified α1-α2 domain with an attached polypeptide
On to B1, for which the “IC50 (read off the curve)” value in the assay with mouse NKG2D-Fc was roughly 1 nM. The same molecule had an IC50 with human NKG2D-Fc [2] of 0.6 nM. Also, the “fold better binding than WT NKG2DL (IC50)” value in the assay with human NKG2D-Fc [3] was found to be 32 fold. Moreover, in the assay with biotinylated human NKG2D [4], the “fold affinity increase relative to WT α1-α2” value is roughly 30 fold and the “fold reduction in the off-rate relative to WT” value came out at 18 fold. For the same molecule, the NK-mediated lysis of FGFR3-expressing P815 cells (calcein release) in assay [5] was 15 fold. Besides, binding with biotinylated human NKG2D [6] was put at a Kd of 0.4 nM. In the assay with biotinylated human NKG2D [7], this molecule displayed an off-rate constant (koff) of 7e-05 s⁻¹ and a kon of 200000 M⁻¹ s⁻¹.

B2: MICA-α3-iFv.2 (designed binder)
chain: B1 chain with L68G, W69N, L125K, E152K, D154K, R161H
As to B2, the “EC50 (read off the curve)” value is roughly 2 nM in the assay with FGFR3 (coated on wells) [8] and roughly 5 nM with FGFR3 (coated on wells) [9].

B3: α1-α2 variant 18 (designed binder)
chain: B1 chain with S20P
notes: as for B1
B3: the “IC50 (read off the curve)” value in the assay with mouse NKG2D-Fc is roughly 1 nM. In addition, the 50% inhibitory concentration (IC50) with human NKG2D-Fc [2] is 0.5 nM. For the same molecule, the “fold better binding than WT NKG2DL (IC50)” value with human NKG2D-Fc [3] was 38 fold. Further, in the assay with biotinylated human NKG2D [4], the “fold affinity increase relative to WT α1-α2” value was roughly 30 fold and the “fold reduction in the off-rate relative to WT” value was determined as 18 fold. For the same molecule, the NK-mediated lysis of FGFR3-expressing P815 cells (calcein release) in assay [5] was 15 fold. In addition, the Kd with biotinylated human NKG2D [6] was found to be 0.4 nM. In the assay with biotinylated human NKG2D [7], the off-rate constant (koff) is 9e-05 s⁻¹ and the kon is 230000 M⁻¹ s⁻¹.

B4: MICA-α3-iFv.1 (designed binder)
chain: EPHSLRYNLTVLSWDGSVQSGFLTEVHLDGQPFLRCDRQKCRAKPQGQWAEDVLGNKTWDRETRDLTGNGKDLRMTLAHIKDQKEGLHSLQEIRVCEIHEDNSTRSSQHFYYDGELFLSQNLETKEWTMPQSSRAQTLAMNVRNFLKEDAMKTKTHYHAMHADCLQELRRYLKSGVVLRRTVPPMVQVTRSEASGDRVTITCRASQDVSTAVAWYQQKPGKAPKLLIYSASFLYSGVPSRFSGSGSGTDFTLTISSLQPEDFATYYCQQSYTTPPTFGQGTKVEIKGGSSRSSSSGGGGSGGGGEVQLVESGGGLVQPGGSLRLSCAASGFTFTSTGISWVRQAPGKGLEWVGRIYPTNGSTNYADSVKGRFTISADTSKNTAYLQMNSLRAEDTAVYYCARTYGIYDLYVDYTEYVMDYWGQGTLVTVSSGGSSRSSSSGGGGSGGGGDIQMTQSPSSLSASGQITVTCRASGFYPWNITLSWRQDGVSLSHDTQQWGDVLPDGQGTYQTWVATRISQGEEQRFTCYMEHSGQHSTHPVPSGKGSHHHHHH
Regarding B4, the “EC50 (read off the curve)” value with FGFR3 (coated on wells) [8] was roughly 1 nM.
